Measured values reported in PMC8339232.

Target: PknF catalytic domain (cPknF) catalytic domain, 1-299 (UniProt P9WI75)
Conditions: reference: non-phosphorylated cPknF; sites T173,T175

PknF catalytic domain (cPknF) catalytic domain, 1-299 (from UniProt P9WI75)
other: volume fraction of dimers: stronger; reference 44
